This note sets out measurements from ChEMBL document CHEMBL3826949, “Characterization of the action of tyrosinase on resorcinols” (Bioorg Med Chem, 2016).

Activity calls are given as the source filed them. The calls are words filed in the database; no cut-off is given here.

The target of series [1] is T1, Tyrosinase (Agaricus bisporus) (UniProt O42713).
T1 sequence (whole entry): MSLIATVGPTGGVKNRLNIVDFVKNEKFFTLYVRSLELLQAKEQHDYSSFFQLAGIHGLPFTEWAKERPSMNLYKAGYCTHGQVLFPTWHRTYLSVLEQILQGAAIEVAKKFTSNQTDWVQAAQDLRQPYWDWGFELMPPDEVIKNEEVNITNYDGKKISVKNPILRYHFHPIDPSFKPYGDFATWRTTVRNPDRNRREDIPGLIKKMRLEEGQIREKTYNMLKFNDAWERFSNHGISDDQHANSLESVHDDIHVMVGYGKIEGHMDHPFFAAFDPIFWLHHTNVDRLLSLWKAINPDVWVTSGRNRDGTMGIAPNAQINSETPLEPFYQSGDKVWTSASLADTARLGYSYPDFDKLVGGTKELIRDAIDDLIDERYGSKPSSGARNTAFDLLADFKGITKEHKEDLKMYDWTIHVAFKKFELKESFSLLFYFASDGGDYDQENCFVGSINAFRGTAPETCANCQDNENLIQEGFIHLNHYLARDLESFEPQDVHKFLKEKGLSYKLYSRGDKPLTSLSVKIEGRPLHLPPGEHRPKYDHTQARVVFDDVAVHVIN
The experiment in a line: Inactivation of mushroom tyrosinase using TBC as substrate assessed as reduction in p-quinone accumulation pre-incubated at 0.3 mM for longer time duration during 0 to 500 secs by spectrophotometric analysis.

For series [2], the target named is T1, Tyrosinase (Agaricus bisporus). Description: Activity of mushroom tyrosinase using TBC as substrate assessed as accumulation of p-quinone in presence of H2O2 spectrophotometric analysis.
The target of series [3] is T2, Tyrosinase (Agaricus bisporus, UniProt O42713).
T2 sequence (O42713 whole entry): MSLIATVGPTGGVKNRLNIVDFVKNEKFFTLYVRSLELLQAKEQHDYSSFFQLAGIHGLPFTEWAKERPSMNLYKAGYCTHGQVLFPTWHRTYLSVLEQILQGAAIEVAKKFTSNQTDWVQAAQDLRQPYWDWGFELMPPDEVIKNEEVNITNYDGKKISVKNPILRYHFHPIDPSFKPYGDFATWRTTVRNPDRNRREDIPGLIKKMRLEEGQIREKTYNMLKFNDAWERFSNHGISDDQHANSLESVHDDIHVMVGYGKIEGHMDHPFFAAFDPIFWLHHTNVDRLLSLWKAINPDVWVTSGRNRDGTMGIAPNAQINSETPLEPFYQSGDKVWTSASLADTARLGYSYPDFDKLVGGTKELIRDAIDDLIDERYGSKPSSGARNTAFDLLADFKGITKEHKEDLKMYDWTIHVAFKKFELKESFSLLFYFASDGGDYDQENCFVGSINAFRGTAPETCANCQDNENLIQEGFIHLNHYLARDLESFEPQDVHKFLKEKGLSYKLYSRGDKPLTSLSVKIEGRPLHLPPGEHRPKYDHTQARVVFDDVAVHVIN
Description: Inhibition of mushroom tyrosinase using L-tyrosine as substrate assessed as monophenolase activity by spectrophotometric analysis.

For series [4], the target named is T1, Tyrosinase (Agaricus bisporus). Description: Substrate activity at mushroom tyrosinase using TBC as substrate assessed as increase in TBC oxidation at 0.05 to 0.50 mM by spectrophotometric analysis.
Series [5] shares this target. The experiment in a line: Inactivation of mushroom tyrosinase using TBC as substrate assessed as reduction in p-quinone accumulation pre-incubated at 0.3 mM for shorter time duration during 0 to 500 secs by spectrophotometric analysis.
For series [6], the target named is T2, Tyrosinase. Description: Inhibition of mushroom tyrosinase using L-dopa as substrate assessed as diphenolase activity by spectrophotometric analysis.
Series [7] has as its target T1, Tyrosinase (Agaricus bisporus). The settings on record: 30 uM.
Substrate in series [8]: CCOc1ccc(O)cc1
Description: (§1) Substrate activity at mushroom tyrosinase assessed as Kcat/Km ratio for monophenolase activity in presence H2O2 by spectrophotometry based Michaelis-Menten plot analysis. The settings on record: Agaricus bisporus.

Substrate in series [9]: CCc1ccc(O)cc1O
Described as §1. The settings on record: Agaricus bisporus.

Substrate in series [10]: Cc1c(O)cccc1O
The series is described as §1. The settings on record: Agaricus bisporus.

Substrate in series [11]: Oc1ccc(O)cc1
The description is as §1. The settings on record: Agaricus bisporus.

Substrate in series [12]: Cc1ccc(O)cc1O
The description is as §1. The settings on record: Agaricus bisporus.

Substrate in series [13]: Oc1cccc(O)c1
Described as §1. The settings on record: Agaricus bisporus.

Substrate in series [14]: N[C@@H](Cc1ccc(O)cc1)C(=O)O
Described as §1. The settings on record: Agaricus bisporus.

Substrate in series [15]: Oc1ccccc1
Described as §1. The settings on record: Agaricus bisporus.

Substrate in series [16]: COc1ccc(O)cc1
Described as §1. The settings on record: Agaricus bisporus.

Substrate in series [17]: CCOc1ccc(O)cc1
Description: (§2) Substrate activity at mushroom tyrosinase assessed as Km for monophenolase activity in presence H2O2 by spectrophotometry based Michaelis-Menten plot analysis. The settings on record: Agaricus bisporus.

Substrate in series [18]: CCc1ccc(O)cc1O
The series is described as §2. The settings on record: Agaricus bisporus.

Substrate in series [19]: Cc1c(O)cccc1O
The series is described as §2. The settings on record: Agaricus bisporus.

Substrate in series [20]: Oc1ccc(O)cc1
The series is described as §2. The settings on record: Agaricus bisporus.

Substrate in series [21]: Cc1ccc(O)cc1O
The series is described as §2. The settings on record: Agaricus bisporus.

Substrate in series [22]: Oc1cccc(O)c1
The series is described as §2. The settings on record: Agaricus bisporus.

Substrate in series [23]: N[C@@H](Cc1ccc(O)cc1)C(=O)O
The description is as §2. The settings on record: Agaricus bisporus.

Substrate in series [24]: Oc1ccccc1
Described as §2. The settings on record: Agaricus bisporus.

Substrate in series [25]: COc1ccc(O)cc1
The series is described as §2. The settings on record: Agaricus bisporus.

Substrate in series [26]: CCOc1ccc(O)cc1
Description: (§3) Substrate activity at mushroom tyrosinase assessed as Kcat for monophenolase activity in presence H2O2 by spectrophotometry based Michaelis-Menten plot analysis. The settings on record: Agaricus bisporus.

Substrate in series [27]: CCc1ccc(O)cc1O
The series is described as §3. The settings on record: Agaricus bisporus.

Substrate in series [28]: Cc1c(O)cccc1O
The series is described as §3. The settings on record: Agaricus bisporus.

Substrate in series [29]: Oc1ccc(O)cc1
The description is as §3. The settings on record: Agaricus bisporus.

Substrate in series [30]: Cc1ccc(O)cc1O
The description is as §3. The settings on record: Agaricus bisporus.

Substrate in series [31]: Oc1cccc(O)c1
The series is described as §3. The settings on record: Agaricus bisporus.

Substrate in series [32]: N[C@@H](Cc1ccc(O)cc1)C(=O)O
The description is as §3. The settings on record: Agaricus bisporus.

Substrate in series [33]: Oc1ccccc1
The series is described as §3. The settings on record: Agaricus bisporus.

Substrate in series [34]: COc1ccc(O)cc1
The description is as §3. The settings on record: Agaricus bisporus.

On to `Oc1cccc(O)c1` [RESORCINOL], for which the inhibition entry in [1] is “inactive”. Moreover, the result in series [2] and in [4] was Active. Moreover, the results for the 50% inhibitory concentration (IC50) on Tyrosinase [3] and at Tyrosinase [6] were 1130 µM and 652 µM, respectively. The inhibition entry in series [5] was “Active”.

Turning to `Cc1c(O)cccc1O`, the result in series [2] and in series [4] was Active. Further, the IC50 at Tyrosinase [3] turned out to be 1420 µM; at Tyrosinase [6] it was 717 µM.

Consider `CCc1ccc(O)cc1O`, for which the inhibition entry in series [1] and in [7] was “inactive” each time. Further, the outcome in series [2] and in series [4] was Active. Further, the IC50 at Tyrosinase [3] turned out to be 1.9 µM; on Tyrosinase [6], 1.1 µM. Moreover, the inhibition entry in series [5] was “Active”.

On to `Cc1ccc(O)cc1O`, for which the inhibition result in series [1] is “inactive”. Moreover, the result in [2] was Active. In addition, the values for the IC50 on Tyrosinase [3] and on Tyrosinase [6] were 9.31 µM and 3.3 µM, respectively. In series [5], the inhibition result is “Active”.

B1: Tyrosinase (Agaricus bisporus), O42713 (protein)
chain: MSLIATVGPTGGVKNRLNIVDFVKNEKFFTLYVRSLELLQAKEQHDYSSFFQLAGIHGLPFTEWAKERPSMNLYKAGYCTHGQVLFPTWHRTYLSVLEQILQGAAIEVAKKFTSNQTDWVQAAQDLRQPYWDWGFELMPPDEVIKNEEVNITNYDGKKISVKNPILRYHFHPIDPSFKPYGDFATWRTTVRNPDRNRREDIPGLIKKMRLEEGQIREKTYNMLKFNDAWERFSNHGISDDQHANSLESVHDDIHVMVGYGKIEGHMDHPFFAAFDPIFWLHHTNVDRLLSLWKAINPDVWVTSGRNRDGTMGIAPNAQINSETPLEPFYQSGDKVWTSASLADTARLGYSYPDFDKLVGGTKELIRDAIDDLIDERYGSKPSSGARNTAFDLLADFKGITKEHKEDLKMYDWTIHVAFKKFELKESFSLLFYFASDGGDYDQENCFVGSINAFRGTAPETCANCQDNENLIQEGFIHLNHYLARDLESFEPQDVHKFLKEKGLSYKLYSRGDKPLTSLSVKIEGRPLHLPPGEHRPKYDHTQARVVFDDVAVHVIN
Regarding B1, the kcat/Km in series [8] was found to be 776000 M⁻¹ s⁻¹; in [9] it was 51300 M⁻¹ s⁻¹; in series [10], 3700 M⁻¹ s⁻¹; in series [11], 110000 M⁻¹ s⁻¹; in [12], 38100 M⁻¹ s⁻¹; in [13] it was 39900 M⁻¹ s⁻¹. Also, the kcat/Km in series [14] came to 37600 M⁻¹ s⁻¹; in series [15] it was 18100 M⁻¹ s⁻¹; in [16] it was 2.3e+06 M⁻¹ s⁻¹. For the same molecule, the Km in series [17] turned out to be 170 µM; in series [18], 117 µM; in series [19], 2700 µM; in [20], 920 µM; in series [21], 203 µM; in [22], 460 µM. Further, the figures for the Km in series [23], in [24] and in series [25] were 210 µM, 700 µM and 80 µM, respectively. Further, the kcat stood at 132 s⁻¹ in series [26]; 6 s⁻¹ in series [27]; 9.94 s⁻¹ in series [28]; 102 s⁻¹ in [29]; 7.73 s⁻¹ in [30]; 18.3 s⁻¹ in series [31]. Moreover, the kcat was determined as 7.9 s⁻¹ in [32], 12.7 s⁻¹ in [33] and 184 s⁻¹ in [34].

As a reminder, the IC50 is the concentration that gives 50% inhibition. The term kcat/Km denotes the turnover number divided by the Michaelis constant. Broadly, the Km is the concentration of substrate that gives half-maximal velocity. What is called kcat is the number of substrate molecules converted per active site and unit of time at saturation.
